From PMC7124958

Tests used:
Experiment in all cases: MST
[1] = target: WT human β-cardiac 25-hep HMM (UniProt P12883)
[2] = target: R663H human β-cardiac 25-hep HMM (UniProt P12883)
[3] = target: C0-C7 fragment of human cardiac myosin binding protein-C (MyBP-C) (human)
[4] = target: R663H human β-cardiac short S1 (sS1) (human) (UniProt P12883)
[5] = target: WT human β-cardiac short S1 (sS1) (human) (UniProt P12883)

C0-C7 fragment of human cardiac myosin binding protein-C (MyBP-C) (domain or fragment)
Kd [1]: 1.5 µM | Kd [2]: 1.1 µM

WT human β-cardiac 25-hep HMM (from UniProt P12883 1-1016; P08590 1-195) (complex)
Kd [3]: 1.1 µM

proximal S2 of human β-cardiac myosin (from UniProt P12883 1-1935) (domain or fragment)
Kd [4]: 58 µM | Kd [5]: 62 µM
